This note sets out measurements from paper PMC9938897, “CvkR is a MerR-type transcriptional repressor of class 2 type V-K CRISPR-associated transposase systems”.

Series [1] has as its target T1, CvkR (Alr3614) (Anabaena sp. PCC 7120, UniProt A0ACD6B984 19-168). The series can be described thus: EMSA; EMSA: 10 mM Tris-HCl pH 8.0, 25 mM MgCl2, 50 mM NaCl, 1 mM DTT, 1 mM EDTA, 50 ug/mL poly(dI-dC), 0.01% NP-40, 10% glycerol, 2 nM probe, 25 C 30 min; footprinting: 50 mM Tris-HCl pH 8.0, 100 mM KCl, 2.5 mM MgCl2, 0.2 mM DTT, 10% glycerol, 2 ug salmon sperm DNA, RT. The note with it: protein: recombinant; tags: 6xHis-SUMO removed by Ulp1 (BamHI site; possible vector residues at N-term); chain copies: 2; label: 5'-biotin; blunt.

The target in a further series is CvkR R42E (Anabaena sp. PCC 7120, UniProt A0ACD6B984 19-168, R60E). The series is described as above. The note with it: protein: recombinant; tags: 6xHis-SUMO removed by Ulp1; chain copies: 2; label: 5'-biotin; blunt.
CvkR R42E, sequence (A0ACD6B984 entry or part of it R60E | R42E R42E): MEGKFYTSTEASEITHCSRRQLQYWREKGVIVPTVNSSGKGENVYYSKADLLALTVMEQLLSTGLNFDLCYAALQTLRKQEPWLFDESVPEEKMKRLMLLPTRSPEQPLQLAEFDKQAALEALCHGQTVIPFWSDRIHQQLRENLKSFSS
The next series addresses CvkRmut (Anabaena sp. PCC 7120, UniProt A0ACD6B984 19-168, R37A;R38A;Q41A;K58A;R60A;N84A). The series is described as above. The settings on record: protein: recombinant; tags: 6xHis-SUMO removed by Ulp1; chain copies: 2; label: 5'-biotin; blunt.
The target of series [2] is T1, CvkR (Alr3614). The experiment in a line: EMSA; no effect of mutation; EMSA: 10 mM Tris-HCl pH 8.0, 25 mM MgCl2, 50 mM NaCl, 1 mM DTT, 1 mM EDTA, 50 ug/mL poly(dI-dC), 0.01% NP-40, 10% glycerol, 2 nM probe, 25 C 30 min; footprinting: 50 mM Tris-HCl pH 8.0, 100 mM KCl, 2.5 mM MgCl2, 0.2 mM DTT, 10% glycerol, 2 ug salmon sperm DNA, RT. The settings on record: protein: recombinant; tags: 6xHis-SUMO removed by Ulp1 (BamHI site; possible vector residues at N-term); chain copies: 2; label: 5'-biotin; blunt. (Mobility shift assays separate free from complexed probe on a gel.)

T1 sequence (A0ACD6B984 entry or part of it): as the sequence (A0ACD6B984 entry or part of it R60E | R42E R42E) above, with E42R counted along it
CvkRmut, sequence (A0ACD6B984 entry or part of it R37A;R38A;Q41A;K58A;R60A;N84A): as the sequence (A0ACD6B984 entry or part of it R60E | R42E R42E) above, with R19A, R20A, Q23A, K40A, E42A, N66A counted along it

B1: PtnsBcenter (dsDNA)
DNA 1: TTTAGAATAACATTATGTATTTATAAATTACCTTTGTTTCA
DNA 2: TGAAACAAAGGTAATTTATAAATACATAATGTTATTCTAAA
As for B1, in the series with CvkR (Alr3614) [1], the binding result is recorded as “binds”.

B2: P43 (dsDNA)
DNA 1: TGCTTTGTATAACATTATGTGTTTTGTATGGTATTTTATTTTT
DNA 2: AAAAATAAAATACCATACAAAACACATAATGTTATACAAAGCA
Regarding B2, in the series with CvkR (Alr3614) [1], the binding result is given as “binds”.

B3: P45 (dsDNA)
DNA 1: TAAGAAACATCCTATAGAAGCATCTTCTAAAACACATTAGTGCTTT
DNA 2: AAAGCACTAATGTGTTTTAGAAGATGCTTCTATAGGATGTTTCTTA
On to B3, for which, in the series with CvkR (Alr3614) [1], the binding result is “no binding”.

B4: PtnsB (dsDNA)
DNA 1: AAAGGTTTTGTATATTTTCATAATGACAAATTGACTGTCGTTTTCTCCACGTTTAGAATAACATTATGTATTTATAAATT
DNA 2: AATTTATAAATACATAATGTTATTCTAAACGTGGAGAAAACGACAGTCAATTTGTCATTATGAAAATATACAAAACCTTT
B4: the binding result with CvkR (Alr3614) [1] is given as “binds”.

B5: Ptracr (dsDNA)
DNA 1: TTAGCCCTCTATGCTTATAGTCTCCGCCTAGCTAGGCGAAGTTGACAAACATCTGAACCTTGAAAATATAATATGTAATA
DNA 2: TATTACATATTATATTTTCAAGGTTCAGATGTTTGTCAACTTCGCCTAGCTAGGCGGAGACTATAAGCATAGAGGGCTAA
Consider B5, for which the binding result in the series with CvkR (Alr3614) [1] is recorded as “no binding”.

B6: PpsbAI (dsDNA)
DNA 1: GGAATAATTAACATTAAGAATTATTAATTCATGGGTTTTTAGTCTAGTAAATTTGCGTGAATTCATGTAAATTTTATGAG
DNA 2: CTCATAAAATTTACATGAATTCACGCAAATTTACTAGACTAAAAACCCATGAATTAATAATTCTTAATGTTAATTATTCC
With B6, the binding result in the series with CvkR (Alr3614) [1] is given as “no binding”.

B7: Pwt (dsDNA)
DNA 1: TTGTATAACATTATGTGTTTTGTATGGTATTTT
DNA 2: AAAATACCATACAAAACACATAATGTTATACAA
On to B7, for which the values for the binding result with CvkR R42E, with CvkR (Alr3614) [1] and with CvkRmut were “no binding”, “binds” and “no binding”, respectively.

B8: P15-5 (dsDNA)
DNA 1: TTGTATAACATAATGTGTTTTGTATGGTATTTT
DNA 2: AAAATACCATACAAAACACATTATGTTATACAA
Consider B8, for which, in the series with CvkR (Alr3614) [2], the binding result is on record as “binds”.

B9: Pcas12k (dsDNA)
DNA 1: AAGAAACATCCTATAGAAGCATCTTCTAAAACACATTAGTGCTTTGTATAACATTATGTGTTTTGTATGGTATTTTATTTTTA
DNA 2: TAAAAATAAAATACCATACAAAACACATAATGTTATACAAAGCACTAATGTGTTTTAGAAGATGCTTCTATAGGATGTTTCTT
Consider B9, for which the binding result with CvkR (Alr3614) [1] is on record as “binds”.

B10: Pcas12kcenter (dsDNA)
DNA 1: CTAAAACACATTAGTGCTTTGTATAACATTATGTGTTTTGTAT
DNA 2: ATACAAAACACATAATGTTATACAAAGCACTAATGTGTTTTAG
For B10, in the series with CvkR (Alr3614) [1], the binding result is “binds”.
